From US20020065218A1

Columns and labels:
[1] = target: chimeric receptor consisting of the extracellular domain of mouse VEGFR-2 and the cytoplasmic domain of erythropoietin receptor, on Ba/F3 cells (mouse) (UniProt P35918); assay: cell-based or functional assay
[2] = target: chimeric receptor consisting of the extracellular domain of mouse VEGFR-3 and the cytoplasmic domain of erythropoietin receptor, on Ba/F3 cells (mouse) (UniProt P35917); assay: cell-based or functional assay
Sequence of UniProt P35917 (P35917 25-775, change not shown): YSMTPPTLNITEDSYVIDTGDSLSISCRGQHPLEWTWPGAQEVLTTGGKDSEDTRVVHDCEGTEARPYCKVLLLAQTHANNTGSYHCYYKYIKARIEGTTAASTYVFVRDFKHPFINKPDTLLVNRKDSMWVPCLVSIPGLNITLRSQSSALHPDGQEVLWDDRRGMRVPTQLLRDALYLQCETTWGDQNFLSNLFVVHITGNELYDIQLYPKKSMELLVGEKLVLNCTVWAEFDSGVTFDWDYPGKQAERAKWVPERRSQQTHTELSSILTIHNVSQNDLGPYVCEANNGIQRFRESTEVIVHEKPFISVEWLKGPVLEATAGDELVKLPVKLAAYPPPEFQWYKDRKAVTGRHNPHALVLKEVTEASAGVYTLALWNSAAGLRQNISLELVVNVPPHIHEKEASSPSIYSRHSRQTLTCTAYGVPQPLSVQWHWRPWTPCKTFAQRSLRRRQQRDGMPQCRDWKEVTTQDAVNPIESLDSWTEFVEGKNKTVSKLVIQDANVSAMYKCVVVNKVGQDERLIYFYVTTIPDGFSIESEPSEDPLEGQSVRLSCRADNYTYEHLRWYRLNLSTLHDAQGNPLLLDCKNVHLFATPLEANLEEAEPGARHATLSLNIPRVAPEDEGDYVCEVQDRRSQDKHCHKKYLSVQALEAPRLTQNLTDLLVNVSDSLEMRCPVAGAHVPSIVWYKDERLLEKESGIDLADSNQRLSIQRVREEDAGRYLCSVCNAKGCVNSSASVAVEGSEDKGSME

Sequence of UniProt P35918 (P35918 20-762, change not shown): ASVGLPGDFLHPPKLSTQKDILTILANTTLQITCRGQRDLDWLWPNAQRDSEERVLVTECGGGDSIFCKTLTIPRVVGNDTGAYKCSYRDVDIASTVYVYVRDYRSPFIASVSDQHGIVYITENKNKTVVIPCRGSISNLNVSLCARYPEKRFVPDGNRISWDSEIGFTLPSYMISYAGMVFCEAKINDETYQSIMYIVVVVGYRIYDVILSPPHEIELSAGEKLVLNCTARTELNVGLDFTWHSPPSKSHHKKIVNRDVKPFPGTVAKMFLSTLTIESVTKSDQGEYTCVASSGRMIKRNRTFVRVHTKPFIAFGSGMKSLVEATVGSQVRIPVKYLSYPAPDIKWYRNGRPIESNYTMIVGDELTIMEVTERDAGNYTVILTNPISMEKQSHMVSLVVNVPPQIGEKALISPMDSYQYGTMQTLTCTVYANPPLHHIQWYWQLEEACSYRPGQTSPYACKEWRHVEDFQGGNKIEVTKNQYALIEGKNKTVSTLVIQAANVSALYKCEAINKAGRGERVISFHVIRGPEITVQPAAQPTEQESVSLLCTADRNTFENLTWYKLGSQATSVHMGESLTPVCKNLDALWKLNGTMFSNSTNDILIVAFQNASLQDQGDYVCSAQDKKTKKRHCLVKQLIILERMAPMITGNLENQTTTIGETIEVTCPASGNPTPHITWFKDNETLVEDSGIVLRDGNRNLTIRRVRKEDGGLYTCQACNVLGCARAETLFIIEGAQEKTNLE

| Substance | concentration producing near-maximal survival of Ba/F3-NYK-EpoR cells without IL-3 [1] [ng/mL] | concentration producing near-maximal survival of Ba/F3 VEGFR-3-EpoR cells without IL-3 [2] [ng/mL] |
| --- | --- | --- |
| recombinant VEGF-CΔNΔC (from UniProt P49767 103-215) (ligand) | 50 | 3 |
| recombinant VEGF-DΔNΔC (from UniProt O43915 93-201) (ligand) | 500 | 500 |
